Results as given in the supplement of paper PMC9170038.

Test system: MS2 coat protein
Experiment: apparent KD of MS2 coat protein; designed switch direction (-1 OFF switch, 1 ON switch): -1; higher = weaker reporter binding
In short: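 RNA switches sharing common flanks were transcribed by stalled E. coli RNA polymerase on Illumina chips. A doubling series of SNAP-549-labelled MS2 coat protein, from 0.7 or 1.5 nM to 3 µM, was applied in Tris-HCl pH 7.5 buffer with KCl, MgCl2, BSA, DTT, tRNA and Tween-20. Each step lasted 0.8–1.5 h at the bottom of the series and 10–20 min at the top. Normalised cluster fluorescence was curve-fitted, giving apparent KD as the per-design median over clusters.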

[1] = Eterna round: R95, input ligand: microRNA oligo, concentration not stated
[2] = input ligand: microRNA oligo, concentration not stated
[3] = Eterna round: R95, input ligand: FMN 200 uM
[4] = Eterna round: R95, input ligand: none

Sequence | apparent KD of MS2 coat protein (input ligand: FMN 200 uM) | apparent KD of MS2 coat protein (input ligand: none) | apparent KD of MS2 coat protein [1] | apparent KD of MS2 coat protein [2] | apparent KD of MS2 coat protein [3] | apparent KD of MS2 coat protein [4]
CGUCUGUAAGGAUAUGGUUGUAUCGACAUGAGGAUCACCCAUGUGACGUGGGACUAGUGAUUAGAAGGUACGAACG [EX5 #63] (Eterna round: R97, puzzle: Exclusion 5) | 0.876 µM | 0.672 µM | – | – | – | –
UUCCUGUCAGGAUAUGACUAGAUGCACGAAAGUGUGUUUACUUAGAAGGGACAUGAGGAUCACCCAUGUAGUCC [Bring Us a Shrubbery-17] (puzzle: Exclusion 4) | – | – | 0.0313 µM | – | – | –
CUUUUGUGAGGAUAUCAGUAGUUAAAUAAUAAAAUUACUACUGAGAAGGCACAUGAGGAUCACCCAUGUUCCUC [Mat - Exclusion 4 - Mod of Salish - D70] (Eterna round: R96, puzzle: Exclusion 4) | 0.274 µM | 0.04 µM | – | 0.0351 µM | – | –
UUUAUGUCAGGAUAUACAUGAGGAUCACCCAUGUAUAUCUUAAGGUAUACAUGGGAAUGUAGAAGGGACCUCCU [Omei Ex3 Pseudoloop 7] (Eterna round: R97, puzzle: Exclusion 3) | 0.0407 µM | 0.0413 µM | – | – | – | –
UCGGGAUGAGGAUAUACAUAGAAAUAGAUUCAUGUAAAACUACAUGAGGAUCACCCAUGUAGAAGGCAUUCCGU [Mat - Exclusion 2 - JL Mod - D58] (Eterna round: R97, puzzle: Exclusion 2) | 0.11 µM | 0.0242 µM | – | – | – | –
GUCAGACGAGGAUAUGAUUAAUAAUACAUGAGGAUCACCCAUGUAAUACUGAUCUAUGGAUCAGAAGGCGUCUGAC [E5/6-A4] (Eterna round: R97, puzzle: Exclusion 5) | 0.015 µM | 0.0161 µM | – | – | – | –
CCCAGUUAGGAAGGAUAUUGUACAUGAGGAUCACCCAUGUAAUAAAUGAGGAUUUCGGGUGUCUACAAGAAGGUCCGGAUAGGC [Ostracism 13 - Jieux - Exclusion NG 2] (Eterna round: R96, puzzle: Exclusion NG 2) | 0.11 µM | 0.0594 µM | – | 0.0392 µM | – | –
AGGUGUGAAGGAUAUAGCGUGGUCGACAUGAGGAUCACCCAUGUGAGAUGGUCGCCGGGUCUAGAAGGUUAGCUAA [Eternabot (L1) Solution 97] (Eterna round: R97, puzzle: Exclusion 5) | 0.0825 µM | 0.0972 µM | – | – | – | –
CCCAGUUAGAGAGGAUAUCGUACAUGAGGAUCACCCAUGUAAUAAAUGAGGAUUUCGGGUGUCUGCGAGAAGGCUCGGAUAGGC [Ostracism 31 - Jieux - Exclusion NG 2] (Eterna round: R96, puzzle: Exclusion NG 2) | 0.105 µM | 0.047 µM | – | 0.0329 µM | – | –
GAUCAUGCAGGAUAUACAGUAUCCAUGAAAACAUGGAUCUAACAUGAGGAUCACCCAUGUAGAAGGGCAUGAUC [Omei Ex2 A24] (Eterna round: R97, puzzle: Exclusion 2) | 0.0179 µM | 0.019 µM | – | – | – | –
AGCUAGAUAGGAUAUGCCCGAGAUAACAUGAGGAUCACCCAUGUGACCGAAUCUAUUCUAGCAGAAGGGUUUAGGA [Mod of ViennaUCT 17 - Jieux - Exclusion 5] (Eterna round: R97, puzzle: Exclusion 5) | 0.0165 µM | 0.014 µM | – | – | – | –
CCGGAUAUGCAGGAUAUCGUAUCGGAAACGAUACGAGAAGGGUAUACAUGAGGAUCACCCAUGUGCCUUACCGG [Fiskers Ex 6 - 19] (puzzle: Exclusion 6) | – | – | 0.016 µM | – | – | –
CAGUACUGAGGAUAUACAUGAGGAUCACCCAUGUGCACCAGCUAGGAAACUAGCAAAAGUAGAAGGCAGUACUG [828 mod 2 m9] (Eterna round: R97, puzzle: Exclusion 3) | 0.112 µM | 0.0155 µM | – | – | – | –
AAGUACCGUCACGAUAGUGAUGGUACAACAGGCAAAUGUACAUGAGGAUCACCCAUGUCCUCUUUUGCUCGUCUUAU [Sensor 3 - 99] (puzzle: Sensor v3, turn-off variant 2) | – | – | 0.031 µM | – | 0.0489 µM | 0.0547 µM
GAUUAUGCGAGCUUUAGGGACAUGAGGAUCACCCAUGUUCGUCUUAUUAGUCUGGAUGCACUGACAUACCUAAAUCU [JMF 81] (puzzle: Sensor v3, turn-off variant 1) | – | – | 0.0252 µM | – | 0.0184 µM | 0.0191 µM
GGUUGGCGAGGAUAUACAUGAGGAUCACCCAUGUGAGAGAAAAGAGUGAGAACGAAAAGUAGAAGGCGCUGACG [salish99_ex3_r3_059] (puzzle: Exclusion 3) | – | – | 0.112 µM | – | 0.06 µM | 0.207 µM
AAACCUGCCCAUGACCGCAAGCUUUUUACUUGUCUUACCACAUGAGGAUCACCCAUGUGACAUGGGCUCCUUAUAAA [Ceedbe] (puzzle: Sensor v3, turn-off variant 2) | – | – | 0.00481 µM | – | 0.0128 µM | 0.0112 µM

Sequence | apparent KD of MS2 coat protein (input ligand: FMN 200 uM) | apparent KD of MS2 coat protein (input ligand: none) | apparent KD of MS2 coat protein [1] | apparent KD of MS2 coat protein [2] | apparent KD of MS2 coat protein [3] | apparent KD of MS2 coat protein [4]
GCAGCAACUCUAACUAACUAAACAUGAGGAUCACCCAUGUCUCAGGAUAUGGUCUGGAUUACAGGCCAGAAGGGAGAAAGCUGC [Eli exng3 - 039] (Eterna round: R96, puzzle: Exclusion NG 3) | 0.0126 µM | 0.0145 µM | – | 0.0109 µM | – | –
CAGUACUGAGGAUAUACAUGAGGAUCACCCAUGUAUCCUAGCUAGGAAACUAGCAAAAGUAGAAGGCAGUACUG [Ex3: 819] (Eterna round: R96, puzzle: Exclusion 3) | – | – | – | 0.0124 µM | – | –
UGACGGAUAGGAUAUGUAUCGCCUGACAUGAGGAUCACCCAUGUGGUUCAUAAGUUGCCAACAGAAGGAUCAGAAA [Eternabot (L1) Solution 60] (Eterna round: R97, puzzle: Exclusion 5) | 0.129 µM | 0.18 µM | – | – | – | –
UUUUCUCACGUCAGGAUAUGCUAAAAGGUGACAAGGUAGAAGGGACAUGAGGAUCACCCAUGUGCUUUCAUGAG [Eternabot (L2) Solution 41] (Eterna round: R97, puzzle: Brourd's mod of Exclusion 4) | 0.0152 µM | 0.0138 µM | – | – | – | –
CCCGGGUUAGGAUAUGGGCCCGGGCCCGAAAGGGCCCGGGCCCAGAAGGGACAUGAGGAUCACCCAUGUCCGGG [-53.1, -49.1 kcal, 20% A] (Eterna round: R97, puzzle: Exclusion 4) | 0.0221 µM | 0.0199 µM | – | – | – | –
AAGAGGUCAGGAUAUACGGAAAGAGAGAGAAGGUGAGGGUAACAUGAGGAUCACCCAUGUAGAAGGGACUAAGA [JR_Exclu2_Sub074] (puzzle: Exclusion 2) | – | – | 0.0448 µM | – | 0.0545 µM | 0.0385 µM
AGUCCUAACACGAAAGUGUUAGUACAAUAAGCUUGUGAAACAUGAGGAUCACCCAUGUCCUCAUAAGCUCGUCUUAU [salish99_TOv2_r3_015] (Eterna round: R96, puzzle: Sensor v3, turn-off variant 2) | 0.0153 µM | 0.0177 µM | – | 0.449 µM | – | –
UUUAAAACAUAGGAUAUCGAAAUAAUCAUUUAACGAGAAGGAUGAACAUGAGGAUCACCCAUGUGGUAUCAUGG [Mat - Exclusion 6 - JL Mod - D18] (puzzle: Exclusion 6) | – | – | 0.23 µM | – | 0.364 µM | 0.409 µM
AUUAAUCAUGUAGGAUAUGCGUGGCGAAGCUAUGCAGAAGGACAUGAGGAUCACCCAUGUUCUAGCGUCUGCGUACAGAUGCUA [JL ENG1 1.37] (Eterna round: R96, puzzle: Exclusion NG 1) | 0.349 µM | 0.0376 µM | – | 0.0295 µM | – | –
GAUCAUGCAGGAUAUACAUUUUCCAUGAAAACAUGGUCCUCACAUGAGGAUCACCCAUGUAGAAGGGCAUGAUC [Omei Ex2 A30] (Eterna round: R97, puzzle: Exclusion 2) | 0.0376 µM | 0.855 µM | – | – | – | –
CCAGCAAAUGUGAGGAUAUGCUGGUCCUUGGAUCAGCAGAAGGCACAUGAGGAUCACCCAUGUGGGAUAGCUGG [Eli bmx4 4.59] (Eterna round: R97, puzzle: Brourd's mod of Exclusion 4) | 0.412 µM | 0.194 µM | – | – | – | –
AGUAAUGUAUAAGGAUAUCUCGCAAAUAAAGGCAGAGAAGGUAUACCCACUUGAGGAUCACCCAAGUCUCGUGUGCCUGGUGGA [Mutated MS2 EX1.30] (Eterna round: R96, puzzle: Exclusion NG 1) | 0.023 µM | 0.0251 µM | – | 0.0201 µM | – | –
UCCGUACAUGAGGAUCACCCAUGUCAGGAUAUGGCUUUUAGCGUAGACGCGCAAGAGGCCAGAAGGGACUUUUG [Eternabot (L2) Solution 6] (Eterna round: R97, puzzle: Exclusion 1) | 0.0305 µM | 0.0277 µM | – | – | – | –
CGAGUCUACGAGGAUAUACUUUGAAUUAUCGGCGUAGAAGGCGUGACUUGAGGAUCACCCAAGUGAUAAACCUA [Ririaned] (Eterna round: R97, puzzle: Exclusion 6) | 0.0541 µM | 0.0396 µM | – | – | – | –
AAAUACAGAGGAUAUAUGGAAAACGACUUGAGGAUCACCCAAGUACGGGUGGCCUAACCCGUAGAAGGCUGCCAAA [Tibece] (Eterna round: R97, puzzle: Exclusion 5) | 0.0725 µM | 0.0306 µM | – | – | – | –
UGUCAGAUGGUAGGAUAUCCAUAUCGAGUGACUCUUUCAUAACAUGAGGAUCACCCAUGUCGGUGGGAGAAGGGCCGUAUGGUG [salish99_ExNG02_R04_027] (Eterna round: R96, puzzle: Exclusion NG 2) | 0.0229 µM | 0.0252 µM | – | 0.0145 µM | – | –
CCUCGACAUGAGGAUCACCCAUGUCAGGAUAUUGUGUUUCGGGUUUUUUACCGUUAGGCAAGAAGGGAUGUGUG [LRO-Excl1-15] (puzzle: Exclusion 1) | – | – | 0.0251 µM | – | – | –
